Results from article PMC5856776 (2018).

Legend:
Test in all cases: SPR
[1] = target: T1, type I collagen (BD-Biosciences) (UniProt P02454 152-1207; P02466 86-1125)
[2] = target: T1, type I collagen (BD-Biosciences); remark: listed apart in the source
[3] = target: T1, type I collagen (BD-Biosciences); remark: listed apart in the source

T1 sequence (P02454 152-1207, chain 1 of 2): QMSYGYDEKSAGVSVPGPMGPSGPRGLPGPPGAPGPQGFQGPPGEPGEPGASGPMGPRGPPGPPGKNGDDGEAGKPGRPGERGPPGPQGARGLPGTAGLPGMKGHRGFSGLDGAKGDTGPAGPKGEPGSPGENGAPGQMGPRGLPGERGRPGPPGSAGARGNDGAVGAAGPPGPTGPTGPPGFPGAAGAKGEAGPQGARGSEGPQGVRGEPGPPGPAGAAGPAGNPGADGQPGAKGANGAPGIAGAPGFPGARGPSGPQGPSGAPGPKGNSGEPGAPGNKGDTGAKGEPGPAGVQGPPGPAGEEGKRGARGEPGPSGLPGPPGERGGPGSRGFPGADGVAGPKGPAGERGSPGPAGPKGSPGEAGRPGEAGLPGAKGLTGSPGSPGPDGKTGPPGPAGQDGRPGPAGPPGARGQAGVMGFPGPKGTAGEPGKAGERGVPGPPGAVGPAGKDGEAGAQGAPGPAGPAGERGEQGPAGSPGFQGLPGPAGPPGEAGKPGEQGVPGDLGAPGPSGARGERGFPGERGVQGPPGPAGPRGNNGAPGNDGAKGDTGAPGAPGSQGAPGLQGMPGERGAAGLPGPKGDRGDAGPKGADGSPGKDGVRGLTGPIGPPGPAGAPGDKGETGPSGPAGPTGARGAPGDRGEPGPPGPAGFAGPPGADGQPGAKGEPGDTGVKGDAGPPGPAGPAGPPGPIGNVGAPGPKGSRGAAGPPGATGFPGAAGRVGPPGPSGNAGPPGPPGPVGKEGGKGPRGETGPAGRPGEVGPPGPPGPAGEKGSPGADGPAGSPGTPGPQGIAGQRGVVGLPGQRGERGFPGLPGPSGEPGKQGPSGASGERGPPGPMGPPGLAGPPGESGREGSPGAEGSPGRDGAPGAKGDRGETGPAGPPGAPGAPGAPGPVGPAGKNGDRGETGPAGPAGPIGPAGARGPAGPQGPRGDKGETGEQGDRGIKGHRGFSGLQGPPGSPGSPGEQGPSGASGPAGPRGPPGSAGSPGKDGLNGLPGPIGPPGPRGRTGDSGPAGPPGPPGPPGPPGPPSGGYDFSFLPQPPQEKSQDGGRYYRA
T1 sequence (P02466 86-1125, chain 2 of 2): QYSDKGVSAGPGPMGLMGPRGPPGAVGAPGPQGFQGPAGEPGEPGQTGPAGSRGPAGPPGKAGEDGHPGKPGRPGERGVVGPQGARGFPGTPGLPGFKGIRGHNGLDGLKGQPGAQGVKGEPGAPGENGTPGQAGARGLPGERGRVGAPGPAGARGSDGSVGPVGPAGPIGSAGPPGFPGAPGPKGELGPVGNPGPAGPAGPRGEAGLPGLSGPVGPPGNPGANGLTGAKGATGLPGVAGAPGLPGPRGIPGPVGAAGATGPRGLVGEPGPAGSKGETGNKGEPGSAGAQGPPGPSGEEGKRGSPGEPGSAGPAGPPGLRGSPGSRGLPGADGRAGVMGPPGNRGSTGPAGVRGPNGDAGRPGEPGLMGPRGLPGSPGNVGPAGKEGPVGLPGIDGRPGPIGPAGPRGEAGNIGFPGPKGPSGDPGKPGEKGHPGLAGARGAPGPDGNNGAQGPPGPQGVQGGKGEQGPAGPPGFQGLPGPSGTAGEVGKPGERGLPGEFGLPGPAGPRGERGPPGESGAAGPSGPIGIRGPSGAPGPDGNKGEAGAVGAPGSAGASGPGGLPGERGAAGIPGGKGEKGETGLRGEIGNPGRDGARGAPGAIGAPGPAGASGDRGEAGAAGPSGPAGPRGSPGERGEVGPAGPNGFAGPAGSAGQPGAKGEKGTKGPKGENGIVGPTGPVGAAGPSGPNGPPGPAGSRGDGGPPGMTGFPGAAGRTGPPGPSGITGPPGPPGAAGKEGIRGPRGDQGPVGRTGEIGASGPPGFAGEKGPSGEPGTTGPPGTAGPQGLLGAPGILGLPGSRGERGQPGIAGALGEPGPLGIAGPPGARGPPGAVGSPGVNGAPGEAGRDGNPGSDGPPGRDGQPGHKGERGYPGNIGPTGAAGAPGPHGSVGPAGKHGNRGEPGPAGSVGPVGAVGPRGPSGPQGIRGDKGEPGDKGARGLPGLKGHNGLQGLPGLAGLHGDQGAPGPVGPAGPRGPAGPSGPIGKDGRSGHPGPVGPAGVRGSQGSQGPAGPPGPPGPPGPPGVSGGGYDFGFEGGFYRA

Binder	koff [1] [s⁻¹]	Ka [2] [M⁻¹]	Kd [3] [nM]
rCnm N2 (domain or fragment) ASGTTGVFYYKTGDMQTDDTNHVRWFLNINNENAYVDSDIRIEDDIQSGQTLDIDSFDITVNGSESYRGQEGINQLAQRYGATISADSASGHISVYIPQGYASLNSFSIMYLTKVDNPDQKTFENNSKAWYKENGKDAVDGKEFNHSVANVNAAGGVDGR	0.000335	221000	4530
full-length recombinant Cnm (rCnm-FL) (domain or fragment) ASDVSNNVSSLTVSPTQINDGGKTTVRFEFDEHAQNIKAGDTITVNWQNSGTVRGTGYTKTIKLEVQGKYVGDLVVTQDKAVVTFNDSITGLQNITGWGEFEIEGRNFTDTTTGNTGSFQVTSGGKTSEVTVVKSASGTTGVFYYKTGDMQTDDTNHVRWFLNINNENAYVDSDIRIEDDIQSGQTLDIDSFDITVNGSESYRGQEGINQLAQRYGATISADSASGHISVYIPQGYASLNSFSIMYLTKVDNPDQKTFENNSKAWYKENGKDAVDGKEFNHSVANVNAAGGVDGRTTTTTEKPTTTTEAPTTTEAPTTTEAPTTTETPTTTEAPTTTEAPTTTEAPTTTEAPTTTETPTTTEAPTTTEAPTTTEAPTTTEAPTTTEAPTTTEAPTTTEAPTTTEASSETTKAEEKTTEVKEPEKTTTTAPAGKT	0.00198	3.46e+06	289
rCnm N1+2 (domain or fragment) SDVSNNVSSLTVSPTQINDGGKTTVRFEFDEHAQNIKAGDTITVNWQNSGTVRGTGYTKTIKLEVQGKYVGDLVVTQDKAVVTFNDSITGLQNITGWGEFEIEGRNFTDTTTGNTGSFQVTSGGKTSEVTVVKSASGTTGVFYYKTGDMQTDDTNHVRWFLNINNENAYVDSDIRIEDDIQSGQTLDIDSFDITVNGSESYRGQEGINQLAQRYGATISADSASGHISVYIPQGYASLNSFSIMYLTKVDNPDQKTFENNSKAWYKENGKDAVDGKEFNHSVANVNAAGGVDGR	0.0244	1.22e+06	817
